Target: KRAS^G12D mutant
Experiment: BLI binding kinetics assay, KRAS G12D mutant
Details: protein-protein; BLI (Fig. S5)

B1: GRB10: potential KRAS-interacting protein, UniProt Q13322 (protein, UniProt Q13322 1-594, looked up)
Growth factor receptor-bound …: MALAGCPDSFLHHPYYQDKVEQTPRSQQDPAGPGLPAQSDRLANHQEDDVDLEALVNDMNASLESLYSACSMQSDTVPLLQNGQHARSQPRASGPPRSIQPQVSPRQRVQRSQPVHILAVRRLQEEDQQFRTSSLPAIPNPFPELCGPGSPPVLTPGSLPPSQAAAKQDVKVFSEDGTSKVVEILADMTARDLCQLLVYKSHCVDDNSWTLVEHHPHLGLERCLEDHELVVQVESTMASESKFLFRKNYAKYEFFKNPMNFFPEQMVTWCQQSNGSQTQLLQNFLNSSSCPEIQGFLHVKELGKKSWKKLYVCLRRSGLYCSTKGTSKEPRHLQLLADLEDSNIFSLIAGRKQYNAPTDHGLCIKPNKVRNETKELRLLCAEDEQTRTCWMTAFRLLKYGMLLYQNYRIPQQRKALLSPFSTPVRSVSENSLVAMDFSGQTGRVIENPAEAQSAALEEGHAWRKRSTRMNILGSQSPLHPSTLSTVIHRTQHWFHGRISREESHRIIKQQGLVDGLFLLRDSQSNPKAFVLTLCHHQKIKNFQILPCEDDGQTFFSLDDGNTKFSDLIQLVDFYQLNKGVLPCKLKHHCIRVAL
Q: For B1, which Kd is on record?
A: 51 µM

— article PMC11575137 (BMC Biology, 2024)
